Assay results published in patent US20230257470A1 (published 2023).

Columns and labels:
human FcγRIIIa(F) = target: T1, human FcγRIIIa(F) (human, UniProt P08637 17-208, limits assumed); assay: SPR, antibody captured, FcγR as analyte, capture-corrected binding amount
T1 construct: the assay used allotype F; also called FcgRIIIaF; FcγRIIIa allotype F158

human FcγRIIb [1] = target: T2, human FcγRIIb (human, UniProt P31994 43-217, limits assumed); assay: as above
T2 construct: also called FcgRIIb; FcγIIB
T2 sequence: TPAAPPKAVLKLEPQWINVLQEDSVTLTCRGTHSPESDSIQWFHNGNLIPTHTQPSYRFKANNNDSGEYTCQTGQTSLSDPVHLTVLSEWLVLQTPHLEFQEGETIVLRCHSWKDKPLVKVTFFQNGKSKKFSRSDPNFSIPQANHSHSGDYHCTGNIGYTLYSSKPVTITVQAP

human FcγRIIa(H) [2] = target: T3, human FcγRIIa(H) (human, UniProt P12318 36-217); assay: SPR (Biacore), captured antibody, FcγR analyte
T3 construct: also called FcgRIIaH; FcγRIIa type H
T3 sequence: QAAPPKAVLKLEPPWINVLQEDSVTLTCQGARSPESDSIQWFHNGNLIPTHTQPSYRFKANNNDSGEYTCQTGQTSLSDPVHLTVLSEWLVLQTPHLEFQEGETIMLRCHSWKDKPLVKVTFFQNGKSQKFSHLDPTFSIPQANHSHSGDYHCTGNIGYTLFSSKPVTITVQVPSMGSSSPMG

human FcγRIIa(R) = target: T4, human FcγRIIa(R) (human, UniProt P12318 36-217); assay: SPR, captured antibody, FcγR analyte; bound amount per captured antibody
T4 construct: also called FcgRIIaR; FcγRIIa type R
T4 chain: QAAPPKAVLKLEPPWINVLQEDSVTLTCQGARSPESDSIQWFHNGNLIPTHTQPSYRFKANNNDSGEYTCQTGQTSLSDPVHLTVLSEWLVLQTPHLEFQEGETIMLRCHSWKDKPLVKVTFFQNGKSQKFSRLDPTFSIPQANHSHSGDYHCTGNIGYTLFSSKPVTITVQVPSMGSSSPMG

human FcγRIIa(H) [3] = target: T5, human FcγRIIa(H) (human, UniProt P12318 36-217); assay: SPR, antibody captured, FcγR as analyte, capture-corrected binding amount
T5 construct: also called FcgRIIaH; FcγRIIa type H
T5 sequence: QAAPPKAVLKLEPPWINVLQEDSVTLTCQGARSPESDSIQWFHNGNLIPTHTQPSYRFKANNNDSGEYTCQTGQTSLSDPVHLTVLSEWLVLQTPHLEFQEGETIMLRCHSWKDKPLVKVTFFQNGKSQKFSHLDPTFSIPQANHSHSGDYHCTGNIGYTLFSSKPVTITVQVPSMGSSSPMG

human FcγRIIa type R = target: T6, human FcγRIIa type R (human, UniProt P12318 36-217); assay: SPR (Biacore), antibody captured, FcγR as analyte, method of Example 14
T6 construct: also called FcγRIIaR; FcγRIIa(R)
T6 chain: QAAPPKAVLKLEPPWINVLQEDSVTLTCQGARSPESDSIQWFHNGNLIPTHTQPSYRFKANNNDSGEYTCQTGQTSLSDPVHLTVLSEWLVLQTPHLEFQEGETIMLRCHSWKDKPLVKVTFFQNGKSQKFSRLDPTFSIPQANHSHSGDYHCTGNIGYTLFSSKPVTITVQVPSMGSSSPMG

human FcγRIIb [4] = target: T7, human FcγRIIb (human, UniProt P31994 43-217, limits assumed); assay: ratio of SPR KD values: KD for FcγRIIaH divided by KD for FcγRIIb
T7 construct: Whole entry (AAI46679.1); also called FcγIIB; FcgRIIb
T7 sequence: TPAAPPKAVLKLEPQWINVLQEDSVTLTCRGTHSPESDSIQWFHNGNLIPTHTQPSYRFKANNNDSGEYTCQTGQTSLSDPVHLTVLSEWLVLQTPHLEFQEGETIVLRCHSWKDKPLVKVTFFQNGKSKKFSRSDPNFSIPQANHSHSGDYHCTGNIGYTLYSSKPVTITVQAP

mouse FcγRIII = target: T8, mouse FcγRIII (mouse, UniProt P08508 31-215); assay: SPR, antibody captured by Protein L, mouse FcγR injected, pH 7.4
T8 construct: Bought protein; construct not described; also called mFcgRIII
T8 sequence (looked up): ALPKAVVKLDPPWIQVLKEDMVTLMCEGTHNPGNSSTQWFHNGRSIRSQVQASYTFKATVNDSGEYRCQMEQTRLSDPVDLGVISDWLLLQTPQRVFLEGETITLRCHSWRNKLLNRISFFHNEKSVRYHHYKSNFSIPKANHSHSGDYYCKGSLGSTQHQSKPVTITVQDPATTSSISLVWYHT

mouse FcγRI = target: T9, mouse FcγRI (mouse, UniProt P26151 25-297); assay: as above
T9 construct: Bought protein; construct not described; also called mFcgRI
T9 sequence (looked up): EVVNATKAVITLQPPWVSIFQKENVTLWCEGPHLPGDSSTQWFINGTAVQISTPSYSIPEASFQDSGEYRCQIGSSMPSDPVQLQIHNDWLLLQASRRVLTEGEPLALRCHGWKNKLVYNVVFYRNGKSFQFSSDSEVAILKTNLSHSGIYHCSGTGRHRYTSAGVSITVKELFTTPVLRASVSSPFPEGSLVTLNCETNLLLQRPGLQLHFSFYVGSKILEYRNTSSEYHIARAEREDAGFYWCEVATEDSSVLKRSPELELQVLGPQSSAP

mouse FcγRIIb = target: T10, mouse FcγRIIb (mouse, UniProt P08101 40-217, limits assumed); assay: as above
T10 construct: Bought protein; construct not described; also called mFcgRIIb
T10 sequence (looked up): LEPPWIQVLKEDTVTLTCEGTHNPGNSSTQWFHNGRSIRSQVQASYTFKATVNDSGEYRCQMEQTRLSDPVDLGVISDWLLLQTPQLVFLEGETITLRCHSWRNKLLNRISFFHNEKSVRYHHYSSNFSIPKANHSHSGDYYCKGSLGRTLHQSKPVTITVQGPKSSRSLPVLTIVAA

T1 sequence (P08637 other isoform, or with tags, fused parts or gaps limits assumed): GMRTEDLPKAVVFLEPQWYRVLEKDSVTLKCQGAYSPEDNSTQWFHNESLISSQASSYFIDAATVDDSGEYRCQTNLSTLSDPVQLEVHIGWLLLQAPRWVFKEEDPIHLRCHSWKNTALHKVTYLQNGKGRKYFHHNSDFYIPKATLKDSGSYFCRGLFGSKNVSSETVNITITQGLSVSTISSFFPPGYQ

B1: GpH7-B3 L328R/GpL16-k0 (antibody, human IgG1)
heavy: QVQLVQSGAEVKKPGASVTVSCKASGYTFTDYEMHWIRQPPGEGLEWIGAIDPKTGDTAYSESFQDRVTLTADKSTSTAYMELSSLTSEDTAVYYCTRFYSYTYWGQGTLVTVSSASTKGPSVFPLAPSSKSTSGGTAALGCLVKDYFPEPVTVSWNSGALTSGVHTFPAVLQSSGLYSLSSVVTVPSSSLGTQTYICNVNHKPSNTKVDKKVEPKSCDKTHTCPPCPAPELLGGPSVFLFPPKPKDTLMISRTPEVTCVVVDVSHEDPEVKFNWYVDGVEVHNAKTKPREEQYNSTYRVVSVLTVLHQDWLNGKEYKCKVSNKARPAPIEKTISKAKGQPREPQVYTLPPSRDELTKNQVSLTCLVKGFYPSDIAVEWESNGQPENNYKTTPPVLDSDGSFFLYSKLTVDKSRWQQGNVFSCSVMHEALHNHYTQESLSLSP
light: DIVMTQSPLSLPVTPGEPASISCQASESLVHSNRNTYLHWYLQKPGQSPQLLIYKVSNRFSGVPDRFSGSGSGTDFTLKISRVEAEDVGVYYCSQNTHVPPTFGQGTKVEIE
notes: Anti-glypican-3 human IgG1 with B3 constant region (G1d with K439E); also called B3 variant; copies: 2 + 2
relative binding activity (human FcγRIIIa(F)): 1 % of GpH7-B3/GpL16-k0
relative binding activity (human FcγRIIb [1]): 3 % of GpH7-B3/GpL16-k0

B2: GpH7-B3 variant V266R/GpL16-k0 (antibody, human IgG1)
heavy: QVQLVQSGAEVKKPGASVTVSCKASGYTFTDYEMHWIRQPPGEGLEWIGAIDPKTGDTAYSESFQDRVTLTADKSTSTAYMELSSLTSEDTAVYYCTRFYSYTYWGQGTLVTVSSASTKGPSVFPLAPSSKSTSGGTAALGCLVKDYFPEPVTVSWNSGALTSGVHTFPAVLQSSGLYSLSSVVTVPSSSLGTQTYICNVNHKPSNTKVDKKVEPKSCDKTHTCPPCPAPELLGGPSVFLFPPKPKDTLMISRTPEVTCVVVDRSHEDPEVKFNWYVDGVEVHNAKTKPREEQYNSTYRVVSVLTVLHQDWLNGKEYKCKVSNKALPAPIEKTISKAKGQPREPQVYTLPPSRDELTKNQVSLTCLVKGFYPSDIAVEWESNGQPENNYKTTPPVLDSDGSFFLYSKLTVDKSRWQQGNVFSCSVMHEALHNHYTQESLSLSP
light: DIVMTQSPLSLPVTPGEPASISCQASESLVHSNRNTYLHWYLQKPGQSPQLLIYKVSNRFSGVPDRFSGSGSGTDFTLKISRVEAEDVGVYYCSQNTHVPPTFGQGTKVEIE
notes: anti-glypican-3 IgG1; alteration introduced into GpH7-B3; copies: 2 + 2
relative binding activity (human FcγRIIa(H) [2]): 1 % of GpH7-B3/GpL16-k0

B3: GpH7-B3 L234G/GpL16-k0 (antibody, human IgG1)
heavy: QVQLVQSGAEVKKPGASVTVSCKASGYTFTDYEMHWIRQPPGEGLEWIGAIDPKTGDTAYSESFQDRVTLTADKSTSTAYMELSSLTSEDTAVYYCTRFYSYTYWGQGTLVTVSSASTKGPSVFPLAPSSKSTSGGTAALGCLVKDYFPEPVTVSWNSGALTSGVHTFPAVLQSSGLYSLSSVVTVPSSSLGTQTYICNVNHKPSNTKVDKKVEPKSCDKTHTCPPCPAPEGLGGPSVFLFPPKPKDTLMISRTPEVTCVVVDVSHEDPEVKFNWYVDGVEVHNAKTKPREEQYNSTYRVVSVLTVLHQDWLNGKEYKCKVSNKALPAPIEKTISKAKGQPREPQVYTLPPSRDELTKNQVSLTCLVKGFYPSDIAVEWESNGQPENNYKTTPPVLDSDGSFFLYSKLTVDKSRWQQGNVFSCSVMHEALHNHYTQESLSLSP
light: DIVMTQSPLSLPVTPGEPASISCQASESLVHSNRNTYLHWYLQKPGQSPQLLIYKVSNRFSGVPDRFSGSGSGTDFTLKISRVEAEDVGVYYCSQNTHVPPTFGQGTKVEIE
notes: anti-glypican-3 IgG1; B3 constant region (G1d with K439E); also called B3 variant; copies: 2 + 2
relative binding activity (human FcγRIIa(R)): 9 % of GpH7-B3/GpL16-k0

B4: GpH7-B3 G236K/GpL16-k0 (antibody, human IgG1)
heavy: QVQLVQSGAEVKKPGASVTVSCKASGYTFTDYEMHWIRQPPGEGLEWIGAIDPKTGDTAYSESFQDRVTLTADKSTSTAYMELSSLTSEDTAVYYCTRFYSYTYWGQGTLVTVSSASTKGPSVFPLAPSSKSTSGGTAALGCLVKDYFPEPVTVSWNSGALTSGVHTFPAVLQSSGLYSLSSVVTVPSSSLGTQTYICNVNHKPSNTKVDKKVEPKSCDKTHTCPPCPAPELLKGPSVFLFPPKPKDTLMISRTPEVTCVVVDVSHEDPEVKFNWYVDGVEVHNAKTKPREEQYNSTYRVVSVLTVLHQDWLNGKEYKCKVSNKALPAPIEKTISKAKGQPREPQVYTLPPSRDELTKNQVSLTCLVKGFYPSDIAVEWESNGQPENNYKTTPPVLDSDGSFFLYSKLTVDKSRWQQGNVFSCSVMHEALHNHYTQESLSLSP
light: DIVMTQSPLSLPVTPGEPASISCQASESLVHSNRNTYLHWYLQKPGQSPQLLIYKVSNRFSGVPDRFSGSGSGTDFTLKISRVEAEDVGVYYCSQNTHVPPTFGQGTKVEIE
notes: as for B3
relative binding activity (human FcγRIIa(R)): 9 % of GpH7-B3/GpL16-k0

B5: GpH7-B3 P329Q/GpL16-k0 (antibody, human IgG1)
heavy: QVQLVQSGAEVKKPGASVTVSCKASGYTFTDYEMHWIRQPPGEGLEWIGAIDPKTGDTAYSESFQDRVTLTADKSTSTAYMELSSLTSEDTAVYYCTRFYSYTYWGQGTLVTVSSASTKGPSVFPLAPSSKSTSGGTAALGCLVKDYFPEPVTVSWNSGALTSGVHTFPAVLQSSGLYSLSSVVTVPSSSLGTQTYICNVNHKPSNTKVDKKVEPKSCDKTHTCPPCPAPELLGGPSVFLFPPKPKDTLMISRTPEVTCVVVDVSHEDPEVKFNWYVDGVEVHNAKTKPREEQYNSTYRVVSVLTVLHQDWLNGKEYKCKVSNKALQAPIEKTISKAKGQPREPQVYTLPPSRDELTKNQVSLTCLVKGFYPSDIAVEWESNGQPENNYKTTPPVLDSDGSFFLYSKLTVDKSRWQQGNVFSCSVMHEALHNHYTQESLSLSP
light: DIVMTQSPLSLPVTPGEPASISCQASESLVHSNRNTYLHWYLQKPGQSPQLLIYKVSNRFSGVPDRFSGSGSGTDFTLKISRVEAEDVGVYYCSQNTHVPPTFGQGTKVEIE
notes: as for B1
relative binding activity (human FcγRIIIa(F)): 1 % of GpH7-B3/GpL16-k0
relative binding activity (human FcγRIIb [1]): 2 % of GpH7-B3/GpL16-k0

B6: GpH7-B3 N325Y/GpL16-k0 (antibody, human IgG1)
heavy: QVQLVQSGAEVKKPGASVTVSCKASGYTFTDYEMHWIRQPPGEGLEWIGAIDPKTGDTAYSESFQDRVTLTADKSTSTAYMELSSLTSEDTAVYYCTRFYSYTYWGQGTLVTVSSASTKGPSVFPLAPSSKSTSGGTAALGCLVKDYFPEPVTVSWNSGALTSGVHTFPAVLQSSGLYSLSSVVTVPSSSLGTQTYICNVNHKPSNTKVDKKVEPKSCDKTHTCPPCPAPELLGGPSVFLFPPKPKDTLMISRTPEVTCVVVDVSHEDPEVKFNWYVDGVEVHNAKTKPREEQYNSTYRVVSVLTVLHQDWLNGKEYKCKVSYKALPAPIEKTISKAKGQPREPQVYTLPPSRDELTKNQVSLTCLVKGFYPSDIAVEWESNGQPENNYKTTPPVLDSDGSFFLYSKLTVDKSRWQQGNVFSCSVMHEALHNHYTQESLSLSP
light: DIVMTQSPLSLPVTPGEPASISCQASESLVHSNRNTYLHWYLQKPGQSPQLLIYKVSNRFSGVPDRFSGSGSGTDFTLKISRVEAEDVGVYYCSQNTHVPPTFGQGTKVEIE
notes: as for B1
relative binding activity (human FcγRIIa(H) [3]): -9 % of GpH7-B3/GpL16-k0

B7: GpH7-B3 variant V266K/GpL16-k0 (antibody, human IgG1)
heavy: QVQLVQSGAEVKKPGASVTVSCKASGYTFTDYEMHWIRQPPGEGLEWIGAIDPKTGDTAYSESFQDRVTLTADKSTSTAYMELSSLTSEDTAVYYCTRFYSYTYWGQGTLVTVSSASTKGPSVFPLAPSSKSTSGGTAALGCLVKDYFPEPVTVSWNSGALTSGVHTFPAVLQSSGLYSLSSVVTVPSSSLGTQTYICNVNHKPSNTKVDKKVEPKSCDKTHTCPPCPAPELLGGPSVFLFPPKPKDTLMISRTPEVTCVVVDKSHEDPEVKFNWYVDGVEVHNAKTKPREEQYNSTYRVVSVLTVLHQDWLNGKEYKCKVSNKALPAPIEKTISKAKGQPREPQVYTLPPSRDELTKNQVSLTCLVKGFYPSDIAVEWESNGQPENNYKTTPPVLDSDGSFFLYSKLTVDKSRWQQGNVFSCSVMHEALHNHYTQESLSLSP
light: DIVMTQSPLSLPVTPGEPASISCQASESLVHSNRNTYLHWYLQKPGQSPQLLIYKVSNRFSGVPDRFSGSGSGTDFTLKISRVEAEDVGVYYCSQNTHVPPTFGQGTKVEIE
notes: as for B2
relative binding activity (human FcγRIIa(H) [2]): 1 % of GpH7-B3/GpL16-k0

B8: IL6R-PD082/IL6R-L (antibody, human IgG1)
heavy: QVQLQESGPGLVKPSETLSLTCAVSGHSISHDHAWSWVRQPPGEGLEWIGFISYSGITNYNPSLQGRVTISRDNSKNTLYLQMNSLRAEDTAVYYCARSLARTTAMDYWGEGTLVTVSSASTKGPSVFPLAPSSKSTSGGTAALGCLVKDYFPEPVTVSWNSGALTSGVHTFPAVLQSSGLYSLSSVVTVPSSSLGTQTYICNVNHKPSNTKVDKKVEPKSCDKTHTCPPCPAPELLGFDSVFLFPPKPKDTLYISRTPEVTCVVVDVSHEDPEVKFNWYVDGVEVHNAKTKPREEQYNSTYRVVSVLTVLHQDWLNGKEYKCKVSNKALPAPIEKTISKAKGQPREPQVYTLPPSRDELTKNQVSLTCLVKGFYPSDIAVEWESNGQPENNYKTTPPVLDSDGSFFLYSKLTVDKSRWQQGNVFSCSVMHEALHYHYTQKSLSLSP
light: DIQMTQSPSSLSASVGDRVTITCRASQDISSYLNWYQQKPGKAPKLLIYYTSRLHSGVPSRFSGSGSGTDFTFTISSLQPEDIATYYCQQGNTLPYTFGQGTKVEIK
notes: Alteration is counted against IL6R-F11; also called G237F/P238D; P238D/G237F
Kd (human FcγRIIa type R): 1400 nM

B9: IL6R-BP147/IL6R-L (antibody, human IgG1, name in EU numbering)
heavy: QVQLQESGPGLVKPSETLSLTCAVSGHSISHDHAWSWVRQPPGEGLEWIGFISYSGITNYNPSLQGRVTISRDNSKNTLYLQMNSLRAEDTAVYYCARSLARTTAMDYWGEGTLVTVSSASTKGPSVFPLAPSSKSTSGGTAALGCLVKDYFPEPVTVSWNSGALTSGVHTFPAVLQSSGLYSLSSVVTVPSSSLGTQTYICNVNHKPSNTKVDKKVEPKSCDKTHTCPPCPAPEYLGDDSVFLFPPKPKDTLMISRTPEVTCVVVDVSHEDPEVKFNWYVDGVEVHNAKTKPREEQYNSTYRVVSVLTVLHQDWLNGKEYKCKVSNAALPKPIEKTISKAKGQPREPQVYTLPPSRDELTKNQVSLTCLVKGFYPSDIAVEWESNGQPENNYKTTPPVLDSDGSFFLYSKLTVDKSRWQQGNVFSCSVMHEALHNHYTQESLSLSP
light: DIQMTQSPSSLSASVGDRVTITCRASQDISSYLNWYQQKPGKAPKLLIYYTSRLHSGVPSRFSGSGSGTDFTFTISSLQPEDIATYYCQQGNTLPYTFGQGTKVEIK
notes: Alterations introduced into IL6R-B3 (EU numbering)
KD(IIaH)/KD(IIb) (human FcγRIIb [4]): 77.7

B10: IL6R-BP143/IL6R-L (antibody, human IgG1, name in EU numbering)
heavy: QVQLQESGPGLVKPSETLSLTCAVSGHSISHDHAWSWVRQPPGEGLEWIGFISYSGITNYNPSLQGRVTISRDNSKNTLYLQMNSLRAEDTAVYYCARSLARTTAMDYWGEGTLVTVSSASTKGPSVFPLAPSSKSTSGGTAALGCLVKDYFPEPVTVSWNSGALTSGVHTFPAVLQSSGLYSLSSVVTVPSSSLGTQTYICNVNHKPSNTKVDKKVEPKSCDKTHTCPPCPAPEYLGGDSVFLFPPKPKDTLMISRTPEVTCVVVDVSHEDPEVKFNWYVDGVEVHNAKTKPREEQYNSTYRVVSVLTVLHQDWLNGKEYKCKVSNAALPAPIEKTISKAKGQPREPQVYTLPPSRDELTKNQVSLTCLVKGFYPSDIAVEWESNGQPENNYKTTPPVLDSDGSFFLYSKLTVDKSRWQQGNVFSCSVMHEALHNHYTQESLSLSP
light: DIQMTQSPSSLSASVGDRVTITCRASQDISSYLNWYQQKPGKAPKLLIYYTSRLHSGVPSRFSGSGSGTDFTFTISSLQPEDIATYYCQQGNTLPYTFGQGTKVEIK
notes: as for B9
KD(IIaH)/KD(IIb) (human FcγRIIb [4]): 4.71

B11: VH3/L(WT)-IgG1-F1009 (antibody)
heavy: QVQLQESGPGLVKPSETLSLTCAVSGHSISHDHAWSWVRQPPGEGLEWIGFISYSGITNYNPSLQGRVTISRDNSKNTLYLQMNSLRAEDTAVYYCARSLARTTAMDYWGEGTLVTVSSASTKGPSVFPLAPSSKSTSGGTAALGCLVKDYFPEPVTVSWNSGALTSGVHTFPAVLQSSGLYSLSSVVTVPSSSLGTQTYICNVNHKPSNTKVDKKVEPKSCDKTHTCPPCPAPELRGGPKVFLFPPKPKDVLYISRTPEVTCVVVDVSHEDPEVKFNWYVDGVEVHNAKTKPREEQYNSTYRVVSVLQPLHADWLNGKEYKCKVSNKALPAPIEKTISKAKGQPREPQVYTLPPSRDELTKNQVSLTCLVKGFYPSDIAVEWESNGQPENNYKTTPPVLDSDGSFFLYSKLTVDKSRWQQGNVFSCSVMHEALHYHVTQKSLSLSP
light: not shown
notes: L235R/S239K variant of VH3-IgG1-F947 with L(WT)-CK; also called VH3-IgG1-F1009; copies: 2 + 2
binding result (mouse FcγRIII): no binding
binding result (mouse FcγRI): no binding
binding result (mouse FcγRIIb): no binding
